# Measured values from patent US20250092426, “CAS ENDONUCLEASES AND RELATED METHODS” (Flagship Pioneering Innovations VII, LLC, published 2025).
# T1: CasEnd-36 (synthetic construct)
# T1 chain: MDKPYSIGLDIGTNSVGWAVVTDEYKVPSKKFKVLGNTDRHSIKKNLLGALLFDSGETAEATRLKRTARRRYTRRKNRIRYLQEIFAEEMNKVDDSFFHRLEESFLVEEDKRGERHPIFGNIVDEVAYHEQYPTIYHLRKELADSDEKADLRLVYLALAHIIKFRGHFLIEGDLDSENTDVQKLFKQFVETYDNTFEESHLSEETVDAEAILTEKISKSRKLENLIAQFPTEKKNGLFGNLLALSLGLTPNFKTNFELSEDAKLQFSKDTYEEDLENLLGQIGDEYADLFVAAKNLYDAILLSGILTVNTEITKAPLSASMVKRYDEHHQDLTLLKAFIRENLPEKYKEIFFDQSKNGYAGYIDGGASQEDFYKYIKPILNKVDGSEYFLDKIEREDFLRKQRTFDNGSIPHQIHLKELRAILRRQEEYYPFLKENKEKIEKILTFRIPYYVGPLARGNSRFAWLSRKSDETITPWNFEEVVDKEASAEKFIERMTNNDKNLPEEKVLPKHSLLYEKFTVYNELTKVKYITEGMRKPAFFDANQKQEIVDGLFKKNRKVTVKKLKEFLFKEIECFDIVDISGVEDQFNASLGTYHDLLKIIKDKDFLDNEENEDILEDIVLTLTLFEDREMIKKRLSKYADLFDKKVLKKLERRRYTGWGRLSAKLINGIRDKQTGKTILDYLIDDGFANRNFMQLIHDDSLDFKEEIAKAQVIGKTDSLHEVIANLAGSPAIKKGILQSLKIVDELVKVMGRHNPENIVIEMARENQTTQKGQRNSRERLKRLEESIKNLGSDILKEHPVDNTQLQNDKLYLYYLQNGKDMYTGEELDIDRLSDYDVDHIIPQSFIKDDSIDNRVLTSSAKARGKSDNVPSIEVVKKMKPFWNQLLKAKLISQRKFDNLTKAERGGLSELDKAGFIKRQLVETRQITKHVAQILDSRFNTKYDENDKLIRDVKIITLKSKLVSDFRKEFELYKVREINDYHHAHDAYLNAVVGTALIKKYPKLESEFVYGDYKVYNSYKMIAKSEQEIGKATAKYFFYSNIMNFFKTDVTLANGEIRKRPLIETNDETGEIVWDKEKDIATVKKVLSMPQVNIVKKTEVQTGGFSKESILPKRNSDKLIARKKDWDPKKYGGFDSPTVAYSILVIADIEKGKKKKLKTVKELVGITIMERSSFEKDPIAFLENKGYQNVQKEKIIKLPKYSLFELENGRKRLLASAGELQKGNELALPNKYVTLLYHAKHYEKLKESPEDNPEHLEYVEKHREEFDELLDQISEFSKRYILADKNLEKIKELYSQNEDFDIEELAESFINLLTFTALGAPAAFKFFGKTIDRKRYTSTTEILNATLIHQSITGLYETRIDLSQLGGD
# Target: T1, CasEnd-36
# Assay: cell_activity; +++; HEK293T; PAM not stated
# Summary of the method: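 BFP-to-GFP conversion via reverse transcriptase fusion with each Cas endonuclease plus template RNA: 200 ng of each plasmid nucleofected into 250,000 BFP-expressing HEK293T cells (program DS-150). Percent GFP+ cells by flow cytometry at day 4 measured editing.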
binder,measurement,value
BFP-to-GFP template RNA ; BFP reporter protospacer (ssRNA ; dsDNA) RNA: GCCGAAGCACUGCACGCCGUGUUUUAGAGCUAGAAAUAGCAAGUUAAAAUAAGGCUAGUCCGUUAUCAACUUGAAAAAGUGGCACCGAGUCGGUGCACCCUGACGUACGGCGUGCAGUGCUU DNA 1: GCCGAAGCACTGCACGCCGT DNA 2: ACGGCGTGCAGTGCTTCGGC,activity,≥ 100 % of reference
